Data on 4 substances can be found in doi:10.1101/641415.

Assay [1] has as its target SeMet-labelled SiiA-PD (S. Typhimurium). The assay is described as follows: crystal structure.
For assay [2], the target named is SiiA periplasmic domain (SiiA-PD) (S. Typhimurium). Nature of the assay: SEC. A general note: Size exclusion chromatography separates by hydrodynamic size, large species first.
Assay [3] concerns the target SiiA-R162A (S. Typhimurium). Nature of the assay: SEC.
The target of assay [4] is periplasmic region of SiiA (ppr-SiiA, aa 40-210) (S. Typhimurium). Nature of the assay: SEC.

In general, stoichiometry N refers to the number of molecules, sites or subunits per partner or assembly. As to “SeMet-labelled SiiA-PD (domain or fragment)”, the stoichiometry N in assay [1] turned out to be 2.
The substance “SiiA periplasmic domain (SiiA-PD) (domain or fragment)” registered a stoichiometry N in assay [2] of 2.
In assay [3], SiiA-R162A (domain or fragment) registered a stoichiometry N of 2.
On to “periplasmic region of SiiA (ppr-SiiA, aa 40-210) (domain or fragment)”, for which, in assay [4], the stoichiometry N came out at 2.
